# Laboratory results from the nanobody polyreactivity screen of Harvey et al. (2022).
# Assay: yeast display, Sf9 membrane polyspecificity reagent, FACS + sequencing; frameworks hold sequencing errors
# Method in brief: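 Nanobodies from a synthetic yeast display library (Saccharomyces cerevisiae BJ5465), induced 36–48 hours with galactose, were stained 1 hour at 4 °C with 10% biotinylated, detergent-solubilized Sf9 membrane reagent, enriched on streptavidin microbeads, then FACS-sorted. Anti-HA (expression) and streptavidin (reagent binding) fluorescence set low and high (top ~1%) gates. Polyreactivity labels come from the gate of origin. Genes were colony-PCR amplified, MiSeq 2 × 250 sequenced and filtered by CDR length.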
row,Sequence,polyreactivity (PSR sort gate)
1,QVQLVESGGGLVQAGGSLRLSCAASGRIFGRNAMGWYRQAPGNERELVAAINFGGTSTYYADSVKGRFTISRDNAKNTVYLQMNSLKPEDTAVYYCAARSRQDNFYRSYNSWGQGTQVTVSS,high polyreactivity
2,QVQLVESGGGLVQAGGSLRLSCAASGRIFGRNTMGWYRKAPGKERELVASIRSGGRTYYADSVKGRFTISRDNAKNTVYLEMNSLKPEDTAVYYCAADNRKSSSSGYDYWGQGTQVTVSS,low polyreactivity
3,QVQLVESGGGLVQAGGSLRLSCAASGRIFGRYAMGSYRQAPGKERELVAGINSGSTSYADSVRGRFTISRDNAKNTVYLQMNSLKPEDTAVYYCARGPRYRGGWDTFRGFDYWGQGTQVTVSS,low polyreactivity
4,QVQLVESGGGLVQAGGSLRLSCAASGRIFGRYAMGWYRQAPGKERELVAAISSGTSTNYADSVKGRFTISRDNAKNTVYLQMNSLKPEDTAVYYCAVVLYRHWWYDYWGQGTQVTVSS,high polyreactivity
5,QVQLVESGGGLVQAGGSLRLSCAASGRIFGRYAMGWYRQAPGKERELVAAISSSGGTTYYADSVKGRFTISRDKAKNTVYLQMNSLKPEDTAVYYCAKRGYYYGYDYWGQGTQVTVSS,high polyreactivity
6,QVQLVESGGGLVQAGGSLRLSCAASGRIFGRYAMGWYRQAPGKERELVASITRRGGSTYYADSVKGRFTISRDNAKNTVYLQMNSLKPEDTAVYYCAAGGFSWEGDSWGQGTEVTVSS,high polyreactivity
7,QVQLVESGGGLVQAGGSLRLSCAASGRIFGRYAMGWYRQAPGKERELVAVISARGARTYYADSVKGRFTISRDNAKNTVYLQMNSLKPEDTAVYYCAVDQYATDDYWGQGTQVTVSS,high polyreactivity
8,QVQLVESGGGLVQAGGSLRLSCAASGRIFGRYAMGWYRQEPGKERELVASISWSGDSTYYADSVKGRFTISRDNAKNTVYLQMNSLKPEDTAVYYCNADPFIRTWYNYGYWGQGTQVTVSS,low polyreactivity
9,QVQLVESGGGLVQAGGSLRLSCAASGRIFGRYVMGWYRQAPGKERELVAAITSRDDSTYYADSVKGRFTISRDNAKNTVYLQMTSLKPEDTAVYYCAATWGRGYDYWGQGTQVTVSS,high polyreactivity
10,QVQLVESGGGLVQAGGSLRLSCAASGRIFGSNAMGWYRQAPGKERELVATITKNGTSTYYADSVKGRFTISRDNAKNTVYLQMNSLKPEDTAVYYCARAPLRYSSRYEYWGQGTQVTVSS,low polyreactivity
11,QVQLVESGGGLVQAGGSLRLSCAASGRIFGSYAMGWYRQAHGKERELVAAIRWSGGSTYYADSVKGRFTISRDNAKNTVYLQMNSLKPEDTAVYYCAKTRTGYCFSYGYWGQGTQVTVSS,high polyreactivity
12,QVQLVESGGGLVQAGGSLRLSCAASGRIFGSYAMGWYRQAPWKERELVAAINWRGGSTFYADSVKGRFTISRDNAKNTVYLLMNSLKPEDTAVYYCARSGYRQSGDYWGQGTQVTVSS,low polyreactivity
13,QVQLVESGGGLVQAGGSLRLSCAASGRIFGSYVMGWYRQAPGKEMELVATISWSGGSTYYADSVKGRFTISRDNAKNTVYLQMNSLKPEDTAVYYCAAVSRYSHSPYHYDYWGQGTQVTVSS,high polyreactivity
14,QVQLVESGGGLVQAGGSLRLSCAASGRIFGSYVMGWYRQAPGKERELVAAISRRGGSTYYADSVKGRFTISRDNAKNTVYLQMNSLKPEDTAVDYCAAEFSPSSNPYDYWGQGTQVTVSS,high polyreactivity
15,QVQLVESGGGLVQAGGSLRLSCAASGRIFGTNAMGWYRQAPGKERELVAAISRSGGSTYYADSVKGRFTISRDNSKNTVYLQMNSLKPEDTAVYYCATDGRHTYYYWGQGTQVTVSS,high polyreactivity
16,QVQLVESGGGLVQAGGSLRLSCAASGRIFGTNAMGWYRQAPGKERELVATITRGGGNTYYADSVKGRFTISRDNAKNTVYLQMNSLKPEDTAVYYCAAKFHRFAWYSHYDYWGQGTQVTVSS,low polyreactivity
17,QVQLVESGGGLVQAGGSLRLSCAASGRIFGTNAMGWYRQAPGKERELVATITRGGGNTYYADSVKGRFTISRDNAKNTVYLQMNSLKPEDTAVYYCAAYDSVQKYWILGFDYWGQGTQVTVSS,low polyreactivity
18,QVQLVESGGGLVQAGGSLRLSCAASGRIFGTNSIGWYIQAPRKERELVSAISSSTSTNYADSVKGRFTISRDNAKNTVYLLMYSLKRDDTAFYYFDADELRTDWDYAQGYDYWGQGTQVTVSS,low polyreactivity
19,QVQLVESGGGLVQAGGSLRLSCAASGRIFGTYAMGWYRQAPGKERELVAAITQSGGRTYYADSVKGRFTISRDNAKNTVYLQMNSLKPEDTAVYYCNKVTYRGIGLGYDYWGQGTQVTVSS,high polyreactivity
20,QVQLVESGGGLVQAGGSLRLSCAASGRIFGVNAMGRYRQAPGKERELVAAIDWSDGSTYYADSVKGRFTISRDNAKNTVYLQMNSLKPEDTAVYYCAALPSFLAAQYGDDYWGQGTQVTVSS,low polyreactivity
21,QVQLVESGGGLVQAGGSLRLSCAASGRIFGVNAMGWYRQAPGKERELVAAIRYSGGSTYYADSVKGRFTISRDNAKNTVYLQMNSLKPEDTAVYYCAKARYTYSWSFGYWGQGTQVTVSS,low polyreactivity
22,QVQLVESGGGLVQAGGSLRLSCAASGRIFGVYAMGLYRQAPGKERELVAGITYSGGSTYYADSVKGRFTISRDNAKNTVYLQMNSLKPEDTAVYYCARYHWYYRVSKSDSWGQGTQVTVSS,high polyreactivity

row,Sequence,polyreactivity (PSR sort gate)
1,QVQLVESGGGLVQAGGSLRLSCAASGRIFGVYAMGWYRQAPGKEREFVASITRGGGRTYYADSVKGRFTISRDNAKNTVYLQMNSLKPEDTAVYYCNAVVNSYPYYYWGQGTQVTVSS,high polyreactivity
2,QVQLVESGGGLVQAGGSLRLSCAASGRIFGVYAMGWYRQAPGKERELVAAISEGGGSTNYADSVKGRFSISRDNAKNTVYLQMNSLKPEDTAVYYCAATYRTGVRRYYSWGQGTQVTVSS,low polyreactivity
3,QVQLVESGGGLVQAGGSLRLSCAASGRIFGVYAMGWYRQAPGKERELVAAITYRGASTYADSVKGRFTISRDNAKNTVYLQMNSLNPEDTAVYYCAAEPGSRSYGGDYWGQGTQVTVSS,high polyreactivity
4,QVQLVESGGGLVQAGGSLRLSCAASGRIFGWNAMGWYRQAPGKERELVASIRSGGRTNYADSVKGRFTISRDNAKNTVYLQMNSLKPEDTAVYYCAVGPYYQSTQIYDYWGQGTQVTVSS,low polyreactivity
5,QVQLVESGGGLVQAGGSLRLSCAASGRIFGWNAMGWYRQAPGKERELVATITDGTSTNYADSVKGRFTISRDNAKNTVYLQMYSLKPVDTAVYYCAKRVVTSLYKPDGVKYDYWGQGTQVTVSS,high polyreactivity
6,QVQLVESGGGLVQAGGSLRLSCAASGRIFGWYAMGGYRQAPGKERELVAAITSGGRTKYADSVKGRLTISRDNAKNTVYLQMNSLKPEDTAVYYCAARPQISSFDGLYYWGQGTQVTVSS,high polyreactivity
7,QVQLVESGGGLVQAGGSLRLSCAASGRIFGWYAMGWYRQAPGKERELVAAISWSGGSTYADSVKGRFTISRDNAKNTVYLQMNSLKPEDTAVYYCAADVAYVEYDYWGQGTQVTVSS,low polyreactivity
8,QVQLVESGGGLVQAGGSLRLSCAASGRIFGYAMGWCRQAPRKERELVAAITSSGGRTYYADSVKGRFTISRDNAKNTVYLQMNSLKPEDTAVYYCAKKWPVYRSYDYWGQGTQVTVSS,high polyreactivity
9,QVQLVESGGGLVQAGGSLRLSCAASGRIFGYNAMGWYRQAPGKERELVAAISSSGGSTYYADSVKGRFTISRDNAKNTVYLQMNSLKPEDTAVYYCAARRVTRTTVYRYQYYYWGQGTQVTVSS,high polyreactivity
10,QVQLVESGGGLVQAGGSLRLSCAASGRIFGYNAMGWYRQAPGKERELVAAITQSGGTTYYADSVKGRFTISRDYAKNTVYLQMNSLKPEDTAVYYCARGTRYPNNPFDYWGLGTQVTVSS,high polyreactivity
11,QVQLVESGGGLVQAGGSLRLSCAASGRIFGYNAMGWYRQAPGKERELVAALSWNGGSTYYADSVKGRFTISRDNAKNTVYLQMNSLKPEDTAVYYCNADPSDRRYPHTWTKMGYWGQGTQVTVSS,low polyreactivity
12,QVQLVESGGGLVQAGGSLRLSCAASGRIFGYNTMGWYRQAPGNERELVATITGAGSTNYADSVKGLFTISRDNAKNTVYLQMNSLKPEDTAVYYCAASVRWPRVSQRARYGYYYWGQGTQVTVSS,high polyreactivity
13,QVQLVESGGGLVQAGGSLRLSCAASGRIFGYTMGWYRQAPGKERELVAAISKSGGSTYYADSVKGRFTISRDNAKNTVYLQMNSLIPEDTAVYVCNKPQRILYDYWGQGSQVTVSS,high polyreactivity
14,QVQLVESGGGLVQAGGSLRLSCAASGRIFGYTMGWYRQAPGKERELVAAISKSGGSTYYADSVKGRFTISRDNAKNTVYLQMNSLKPEDTAVYYCNKPQRILYDYWGQGTQVTVSS,high polyreactivity
15,QVQLVESGGGLVQAGGSLRLSCAASGRIFGYYALGLSRQAPGKERELVAAINSGSRTYYADSVKGRFTISRDNAKNTVYLQMNSLKPEDTAVYYCAKVGRGNNYWGQGTQVTVSS,high polyreactivity
16,QVQLVESGGGLVQAGGSLRLSCAASGRIFGYYAMEWNRQAPGKERELVATITFGGGSTYYADSVKGRFTISRDKAKNTVYLQMNSLKPEDTAVSFCAAEGVHYDGDYGTGYDYWGQCTQVTVSS,low polyreactivity
17,QVQLVESGGGLVQAGGSLRLSCAASGRIFGYYAMGWSRPAPGKERELVATITFGGVSTYYADSVKGRFTISRDNAKNNVYLQMNSLKPEDTGVYYCAADSGYLGIYGDEYSWGQGTQVTVSS,low polyreactivity
18,QVQLVESGGGLVQAGGSLRLSCAASGRIFGYYAMGWYRQAPGKERELVAAIDSSGGSTTYADSVKGRFTISRDYAKNTVYLQMNSLKPEDTAVYYCNAGYALRSGPWYYYELDYWGQGTQVTVSS,low polyreactivity
19,QVQLVESGGGLVQAGGSLRLSCAASGRIFGYYAMGWYRQAPGKERELVATIRGGGSTNYADSVKGRCTISRDNAKNTVFLQMNSLKPEDTAVYYCAKPCAKWRGFDYWGQGTQVTVSS,low polyreactivity
20,QVQLVESGGGLVQAGGSLRLSCAASGRIFGYYAMGWYRQAPGKEREWVAAINSGGSTNYADSVKGRFTISRDNAKNTVYLQMNSLIPEDTAVYYCAAGWRYRYFRSRNFYPYYYWGQGTQVTVSS,high polyreactivity
21,QVQLVESGGGLVQAGGSLRLSCAASGRIFGYYAMGWYRQAPGKEREWVAAMSTNGGTTYYAYSVKGRFTISRDNAKNTVYLQMNSLKPEDTAVYYCAATYTVPGHARYDYWGQGTQVTVSS,low polyreactivity
